Measurements reported in patent US20070066522A1 (MICHIGAN STATE UNIVERSITY, published 2007).

Target: T1, c-Cbl (endogenous, in PH3MT cell lysates) (human, UniProt P22681 1-906)
T1 construct: also called c-Cbl E3 ubiquitin ligase; CB1
Assay: method not described; Ras-transformed cells

- binding result: binds
B1: Sprouty2 (endogenous, in PH3MT human fibroblast lysates) (other)
chain: MEARAQSGNGSQPLLQTPRDGGRQRGEPDPRDALTQQVHVLSLDQIRAIRNTNEYTEGPTVVPRPGLKPAPRPSTQHKHERLHGLPEHRQPPRLQHSQVHSSARAPLSRSISTVSSGSRSSTRTSTSSSSSEQRLLGSSFSSGPVADGIIRVQPKSELKPGELKPLSKEDLGLHAYRCEDCGKCKCKECTYPRPLPSDWICDKQCLCSAQNVIDYGTCVCCVKGLFYHCSNDDEDNCADNPCSCSQSHCCTRWSAMGVMSLFLPCLWCYLPAKGCLKLCQGCYDRVNRPGCRCKNSNTVCCKVPTVPPRNFEKPT
notes: Endogenous protein of the H-Ras-transformed human fibroblast strain PH3MT; also called Spry2; human Sprouty-2
